Laboratory results as given in patent publication US20160195541A1.

What was measured:
[1] = biological target: membrane-bound human FcγRIIB on Raji cells (human) (UniProt P31994); assay: FACS on Raji cells (FACS007), constant aggregated IgG; competitor SM101 0.5 µg/µL
[2] = biological target: membrane-bound human FcγRIIB on Raji cells (human) (UniProt P31994); assay: FACS on Raji cells (FACS007), constant aggregated IgG; competitor SM101 0.125 µg/µL
[3] = biological target: membrane-bound human FcγRIIB on Raji cells (human) (UniProt P31994); assay: FACS on Raji cells (FACS007), constant aggregated IgG; competitor SM101 0.0078 µg/µL
[4] = biological target: membrane-bound human FcγRIIB on Raji cells (human) (UniProt P31994); assay: FACS on Raji cells (FACS007), constant aggregated IgG; competitor SM101 0.0156 µg/µL
[5] = biological target: membrane-bound human FcγRIIB on Raji cells (human) (UniProt P31994); assay: FACS on Raji cells (FACS007), constant aggregated IgG; competitor SM101 0.0625 µg/µL
[6] = biological target: membrane-bound human FcγRIIB on Raji cells (human) (UniProt P31994); assay: FACS on Raji cells (FACS021), constant aggregated IgG; competitor SM101 IMP 0.5 µg/µL
[7] = biological target: membrane-bound human FcγRIIB on Raji cells (human) (UniProt P31994); assay: FACS on Raji cells (FACS007), constant aggregated IgG, anti-human IgG-PE; no competitor
[8] = biological target: membrane-bound human FcγRIIB on Raji cells (human) (UniProt P31994); assay: FACS on Raji cells (FACS021), constant aggregated IgG; no competitor (Ref. Std. series)
[9] = biological target: membrane-bound human FcγRIIB on Raji cells (human) (UniProt P31994); assay: FACS on Raji cells (FACS021), constant aggregated IgG; competitor SM101 IMP 0.0078 µg/µL
[10] = biological target: membrane-bound human FcγRIIB on Raji cells (human) (UniProt P31994); assay: FACS on Raji cells (FACS021), constant aggregated IgG; competitor SM101 IMP 0.0625 µg/µL
[11] = biological target: membrane-bound human FcγRIIB on Raji cells (human) (UniProt P31994); assay: FACS on Raji cells (FACS021), constant aggregated IgG; competitor SM101 IMP 0.03125 µg/µL
[12] = biological target: membrane-bound human FcγRIIB on Raji cells (human) (UniProt P31994); assay: FACS on Raji cells, aggregated Beriglobin at 2.5 (µg/µL); mean of three batches
[13] = biological target: membrane-bound human FcγRIIB on Raji cells (human) (UniProt P31994); assay: FACS on Raji cells (FACS021), constant aggregated IgG; competitor SM101 Ref. Std. 0.125 µg/µL
[14] = biological target: membrane-bound human FcγRIIB on Raji cells (human) (UniProt P31994); assay: FACS on Raji cells (FACS021), constant aggregated IgG; competitor SM101 Ref. Std. 0.0078 µg/µL
[15] = biological target: membrane-bound human FcγRIIB on Raji cells (human) (UniProt P31994); assay: FACS on Raji cells (FACS021), constant aggregated IgG; competitor SM101 Ref. Std. 0.0156 µg/µL
[16] = biological target: membrane-bound human FcγRIIB on Raji cells (human) (UniProt P31994); assay: FACS on Raji cells (FACS021), constant aggregated IgG; competitor SM101 Ref. Std. 0.0625 µg/µL
[17] = biological target: membrane-bound human FcγRIIB on Raji cells (human) (UniProt P31994); assay: FACS on Raji cells (FACS021), constant aggregated IgG; competitor SM101 Ref. Std. 0.03125 µg/µL
[18] = biological target: membrane-bound human FcγRIIB on Raji cells (human) (UniProt P31994); assay: FACS: 0.1E6 Raji cells (FcγRIIB) with 2.5 µg aggregated Beriglobin at the stated pH; 1/200 anti-human IgG(H+L)-PE; secondary antibody alone in this panel 173; pH 6.5
[19] = biological target: membrane-bound human FcγRIIB on Raji cells (human) (UniProt P31994); assay: FACS: 0.1E6 Raji cells (FcγRIIB) with 2.5 µg aggregated Beriglobin at the stated pH; 1/200 anti-human IgG(H+L)-PE; secondary antibody alone in this panel 173; pH 7.2
[20] = biological target: membrane-bound human FcγRIIB on Raji cells (human) (UniProt P31994); assay: FACS: 0.1E6 Raji cells (FcγRIIB) with 2.5 µg aggregated Beriglobin at the stated pH; 1/200 anti-human IgG(H+L)-PE; drawn table, secondary antibody control not subtracted
[21] = biological target: membrane-bound human FcγRIIB on Raji cells (human) (UniProt P31994); assay: FACS on Raji cells (FcγRIIB) with constant aggregated Beriglobin and no CSA; detected with anti-human IgG(H+L)-PE; secondary antibody alone (SM101_sek AK.fcs) has median 137
[22] = biological target: membrane-bound human FcγRIIB on Raji cells (human) (UniProt P31994); assay: FACS: 0.1E6 Raji cells (FcγRIIB) with 2.5 µg aggregated Beriglobin at the stated pH; 1/200 anti-human IgG(H+L)-PE; secondary antibody alone in this panel 142
[23] = biological target: membrane-bound human FcγRIIB on Raji cells (human) (UniProt P31994); assay: FACS: 0.1E6 Raji cells (FcγRIIB) with 2.5 µg aggregated Beriglobin at the stated pH; 1/200 anti-human IgG(H+L)-PE; drawn table, secondary antibody control not subtracted; pH 6.5
[24] = biological target: membrane-bound human FcγRIIB on Raji cells (human) (UniProt P31994); assay: FACS: 0.1E6 Raji cells (FcγRIIB) with 2.5 µg aggregated Beriglobin at the stated pH; 1/200 anti-human IgG(H+L)-PE; drawn table, secondary antibody control not subtracted; pH 6.7

Sequence of UniProt P31994 (P31994 43-310): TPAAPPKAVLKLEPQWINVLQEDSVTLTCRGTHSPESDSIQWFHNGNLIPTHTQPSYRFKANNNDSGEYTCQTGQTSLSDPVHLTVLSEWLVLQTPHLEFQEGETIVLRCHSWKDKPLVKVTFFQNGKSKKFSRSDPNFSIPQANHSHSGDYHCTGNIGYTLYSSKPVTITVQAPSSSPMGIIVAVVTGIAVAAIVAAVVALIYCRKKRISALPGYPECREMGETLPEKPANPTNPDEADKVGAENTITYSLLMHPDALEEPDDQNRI

## aggregated human IgG (aggregated Beriglobin, aggregated fraction isolated by size exclusion chromatography) (antibody)
[1]
  Median Signal: 238
[2]
  Median Signal: 329
[3]
  Median Signal: 3010
[4]
  Median Signal: 2270
[5]
  Median Signal: 466
[6]
  Median Signal: 195
[7]
  Median Signal: 3880
[8]
  Median Signal: 6460
[9]
  Median Signal: 5310
[10]
  Median Signal: 831
[11]
  Median Signal: 1780
[12]
  Median MFI (mean): 1280
[13]
  Median Signal: 362
[14]
  Median Signal: 5230
[15]
  Median Signal: 2330
[16]
  Median Signal: 921
[17]
  Median Signal: 1640
[18]
  Median MFI at pH 6.5 (left panel): 703
[19]
  Median MFI at pH 7.2 (left panel): 561
[20]
  Median MFI at pH 7: 599
  Median MFI at pH 7.8: 363
  Median MFI at pH 8: 348
  Median MFI at pH 8.5: 246
  Median MFI at pH 9: 244
  Median MFI at pH 10: 177
[21]
  Median PE-A fluorescence, 0 µg/µL CSA: 3480
[22]
  Median MFI at pH 7.0 (right panel): 866
  Median MFI at pH 8.0 (right panel): 316
  Median MFI at pH 8.5 (right panel): 246
  Median MFI at pH 9.0 (right panel): 244
  Median MFI at pH 10 (right panel): 177
[23]
  Median MFI at pH 6.5: 703
[24]
  Median MFI at pH 6.7: 578
